According to the supplement of paper PMC7125110:
± gives the standard error. For some of these results: Variants at the floor of the assay were thinned out.

B1: glmS ribozyme (parent)
chain: AUAAAAGCGCCAGAACUACAGAAAUGUAGUUGACGAGGAGGAGGUUUAUCGAAUUUUCGGCGGAUGCCUCCAAA

What was measured:
Conditions in all cases: with glucosamine-6-phosphate
[1] = variants of: B1; assay: kcat; higher = faster cleavage; RNA array
Summary of the method: (§1)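 Barcoded ribozyme variants on sequenced MiSeq chips were transcribed in situ by E. coli RNA polymerase and followed at 37 °C through a hybridised Cy3 probe. Glucosamine-6-phosphate at 40 μM to 10 mM in HEPES/KCl/Mg(OAc)2 buffer was flowed in, and tiles were imaged over ~14 h. Signals were normalised to baseline and to non-cleaving reference variants, and per-tile medians were fit to one- or two-exponential decays to give kobs. Weighted Michaelis–Menten fits across concentrations gave kcat and KM.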

[2] = variants of: B1; assay: self-cleavage kobs at 2500 uM GlcN6P; higher = faster cleavage; RNA array
Summary of the method: as §1

[3] = variants of: B1; assay: self-cleavage kobs at 10000 uM GlcN6P; higher = faster cleavage; RNA array
Summary of the method: as §1

[4] = variants of: B1; assay: self-cleavage kobs at 160 uM GlcN6P; higher = faster cleavage; RNA array
Summary of the method: as §1

[5] = variants of: B1; assay: KM; higher = weaker cofactor use; RNA array
Summary of the method: as §1

[6] = variants of: B1; assay: self-cleavage kobs at 40 uM GlcN6P; higher = faster cleavage; RNA array
Summary of the method: as §1

[7] = variants of: B1; assay: self-cleavage kobs at 640 uM GlcN6P; higher = faster cleavage; RNA array
Summary of the method: as §1

Variant	kcat [1] [s⁻¹]	self-cleavage kobs at 2500 uM GlcN6P [2] [s⁻¹]	self-cleavage kobs at 10000 uM GlcN6P [3] [s⁻¹]	self-cleavage kobs at 160 uM GlcN6P [4] [s⁻¹]	KM [5] [mM]	self-cleavage kobs at 40 uM GlcN6P [6] [s⁻¹]	self-cleavage kobs at 640 uM GlcN6P [7] [s⁻¹]
G38A U69G	3.24e-05 ± 5.7e-06	3.53e-05 ± 1.3e-05					
A48G A53U	6.17e-05 ± 9.3e-06	4.65e-05 ± 1.4e-05	5.16e-05 ± 7.9e-06				
U31G A36C	< 1e-05		< 1e-05	< 1e-05			
C11A A14G	0.000935 ± 5.4e-05	0.00051 ± 7.7e-05	0.000802 ± 7.8e-05	7.64e-05 ± 2e-05	1.79 ± 0.2	1.65e-05 ± 7.4e-06	0.000261 ± 3.2e-05
C61G C68U	< 1e-05						
A15G C58U	0.000166 ± 4e-05	2.52e-05 ± 1.2e-05	7.17e-05 ± 9.6e-06				
A33C G59U	< 1e-05		< 1e-05	< 1e-05			
A14G G43A	0.000321 ± 4.1e-05	0.000101 ± 2.2e-05	0.000222 ± 3.1e-05		4.73 ± 1.2	< 1e-05	4.36e-05 ± 1.3e-05
G13C C68A	1.1e-05 ± 2.3e-06						
G37U A53G	1.16e-05 ± 3.4e-06						
U55C C67A	0.000193 ± 6.1e-05	0.000137 ± 2.4e-05	0.00029 ± 5.7e-05				0.000133 ± 2.3e-05
G32C A42U	< 1e-05	< 1e-05		< 1e-05			
G13A U31C	0.00123 ± 0.00012	0.000441 ± 6.9e-05	0.00084 ± 0.00011	3.44e-05 ± 1.2e-05	4.56 ± 0.74		0.000169 ± 3.3e-05
G41C U55G	0.00012 ± 1.1e-05	8.8e-05 ± 3.3e-05	9.95e-05 ± 1.2e-05		1.93 ± 0.75		
A14G C67G C71U	5.11e-05 ± 1.2e-05	5.17e-05 ± 1.4e-05	4.43e-05 ± 1.3e-05				9.52e-05 ± 3.5e-05
G37U	< 1e-05	< 1e-05	< 1e-05				
A52G C68A C70U	1.69e-05 ± 3.4e-06						
A64G U69G	4.12e-05 ± 5.6e-06	4.93e-05 ± 1.2e-05	3.35e-05 ± 8.6e-06				4.4e-05 ± 1.2e-05
G29U G40A	0.000509 ± 4.9e-05	0.000464 ± 6.4e-05	0.000441 ± 4.7e-05	7.2e-05 ± 1.3e-05	0.859 ± 0.18	2.61e-05 ± 7.8e-06	0.000221 ± 3.7e-05
A6U G29U	5.83e-05 ± 3.7e-06		3.74e-05 ± 1.7e-05		5.56 ± 0.69	< 1e-05	
